The numbers were not newly measured in publication PMC9437947, which cites them from elsewhere.

This data set deals with Lys166 (UniProt position 166, RAVKTKIGYPA). In words: kinetics. As to conditions: H297N mutant turning over S-mandelate in the exchange reaction.

For the substance “Mandelate racemase H297N mutant (Pseudomonas putida (inferred; organism not stated in the article); H297N)”, the pKa is ~ 6.
